Measurements published in publication PMC7374468, “Characterization of highly active 2-keto-3-deoxy-L-arabinonate and 2-keto-3-deoxy-D-xylonate dehydratases in terms of the biotransformation of hemicellulose sugars to chemicals” (Applied Microbiology and Biotechnology, 2020).

Legend:
[1] = substrate: O=C(O)C(=O)C[C@H](O)CO; test: purified protein; type: biochemical, Cupriavidus necator; conditions: 2 mM NAD+ for coupling enzyme, 5 mM MgCl2, 50 mM HEPES pH 7.5, 25 °C
[2] = substrate: O=C(O)C(=O)C[C@@H](O)CO; test: purified protein, by the assay type; set-up: coupled assay with PpKGSADH, NADH formation at 340 nm, Michaelis-Menten fit, 25 °C, pH 7.5; conditions: pH 7.5; 25.0 °C
Method: (§1) To determine dehydratase activity, a coupled-assay with PpKGSADH as auxiliary enzyme was used to link the oxidation of KGSA to α-KG using NAD^+, as was described in a previous study (Beer et al. [2017]). The measurement was performed in a 96-well F-bottom plate (Greiner Bio-One, Germany). 20 μL of a diluted enzyme was added to a 96-well plate. A total of 180 μL of reaction solution containing different concentrations of either D-KDP or L-KDP with 0.5 U/mL PpKGSADH, 2 mM NAD^+, 5 mM MgCl2, 50 mM HEPES pH 7.5 (end concentration) were added subsequently. The measurement was performed with a Multiskan spectrophotometer (Thermo Scientific, Germany) by measuring the development of NADH at 340 nm at 25 °C. Enzyme activity (kcat) was defined as the number of NADH molecules formed per molecule of enzyme per second. Measurements were performed in triplicate.

[3] = substrate: O=C(O)C(=O)C[C@@H](O)CO; test: purified protein; type: biochemical, Azospirillum brasilense; conditions: 2 mM NAD+ for coupling enzyme, 5 mM MgCl2, 50 mM HEPES pH 7.5, 25 °C
[4] = substrate: O=C(O)C(=O)C[C@H](O)CO; test: purified protein, by the assay type; set-up: coupled assay with PpKGSADH, NADH formation at 340 nm, Michaelis-Menten fit, 25 °C, pH 7.5; conditions: pH 7.5; 25.0 °C
Method: as §1

[5] = substrate: O=C(O)C(=O)C[C@H](O)CO; test: purified protein; type: biochemical, Pseudomonas putida; conditions: 2 mM NAD+ for coupling enzyme, 5 mM MgCl2, 50 mM HEPES pH 7.5, 25 °C
[6] = substrate: O=C(O)C(=O)C[C@H](O)CO; test: purified protein; type: biochemical, Herbaspirillum seropedicae; conditions: 2 mM NAD+ for coupling enzyme, 5 mM MgCl2, 50 mM HEPES pH 7.5, 25 °C
[7] = substrate: O=C(O)C(=O)C[C@H](O)CO; test: purified protein; type: biochemical, Caulobacter vibrioides; conditions: 2 mM NAD+ for coupling enzyme, 5 mM MgCl2, 50 mM HEPES pH 7.5, 25 °C
[8] = substrate: O=C(O)C(=O)C[C@H](O)CO; test: purified protein; type: biochemical, Paraburkholderia xenovorans; conditions: 2 mM NAD+ for coupling enzyme, 5 mM MgCl2, 50 mM HEPES pH 7.5, 25 °C
[9] = substrate: O=C(O)C(=O)C[C@@H](O)CO; test: purified protein; type: biochemical, Cupriavidus necator; conditions: 2 mM NAD+ for coupling enzyme, 5 mM MgCl2, 50 mM HEPES pH 7.5, 25 °C
[10] = substrate: O=C(O)C(=O)C[C@@H](O)CO; test: purified protein; type: biochemical, Herbaspirillum seropedicae; conditions: 2 mM NAD+ for coupling enzyme, 5 mM MgCl2, 50 mM HEPES pH 7.5, 25 °C

Protein	Km [2] [µM]	kcat [2] [s⁻¹]	kcat/Km [2] [M⁻¹ s⁻¹]	Km [4] [µM]	kcat [4] [s⁻¹]	kcat/Km [4] [M⁻¹ s⁻¹]	other results
CnD-KdpD (Cupriavidus necator H16) (protein, C-terminal His6 tag (kept), pET vector, E. coli BL21(DE3), HisTrap purified; strain given inconsistently (H16 gDNA vs N-1)) MALPLTLSATQTLPADGLAGTLVGRAWIPASDGAPAGPAVVVLRPAGVFDISDVAPTMSTLLEQGDPVTVVHNTPGRWIGKLDDLLANTADPRGSDSVARLLAPCDLQVIKAAGVTFAGSLVERVIEEQTKGDPQGAAEVRNRIQALVGERLSRIRPGSREAGELKALLIEHGMWSQYLEVGIGPDAEIFTKAPLLSALGTGTEIGLHPGSAWNNPEPEIVLAINSRGDVLGATLGNDVNLRDFEGRSALLLGKAKDNNGSCAIGPFLRLFDQSLSLDDVRRATVDLRVDGLDGFVLSGTSSMDQITRDPLELAEQVMGATHQYPDGAMLFLGTLFAPVEDRDTAGGGFTHKDGDLVTISSRQLGSLVNRVGRSDRIAPWTFGVRALMANLAARGHTTF	2490 ± 200	4.24 ± 0.07	1700 ± 280				Km [1]: 230 ± 20 µM; kcat [1]: 13.8 ± 0.2 s⁻¹; kcat/Km [1]: 58900 ± 400 M⁻¹ s⁻¹
AbL-KdpD (Azospirillum brasilense) (protein, N-terminal His6 tag (kept), codon-optimised synthetic gene, E. coli BL21(DE3), HisTrap purified, lower purity) MTSSSTPRHRGIFPVVPTTFADTGELDLASQKRAVDFMIDAGSDGLCILANFSEQFAITDDERDVLTRTILEHVAGRVPVIVTTSHYSTQVCAARSLRAQQLGAAMVMAMPPYHGATFRVPEAQIFEFYARVSDAIAIPIMVQDAPASGTALSAPFLARMAREIEQVAYFKIETPGAANKLRELIRLGGDAIEGPWDGEEAITLLADLHAGATGAMTGGGFPDGIRPILEAWREGRHDDAYARYQAWLPLINHENRQSGILTAKALMREGGVIASERPRHPMPELHPDTRAELLAIARRLDPLVLRWAH				6810 ± 350	6.65 ± 0.1	980 ± 230	Km [3]: 190 ± 20 µM; kcat [3]: 13.6 ± 0.3 s⁻¹; kcat/Km [3]: 71300 ± 300 M⁻¹ s⁻¹
PpD-KdpD (Pseudomonas putida KT2440) (protein, C-terminal His6 tag (kept), pET vector, E. coli BL21(DE3), HisTrap purified) MTDRTNANQPLPLSHDASVFDRGSWVGRVWLPEQGPAVVLVKAGAVYDISTHVATVSALLEVDDPVAYLRALPLAEPLIALPALLGNSDPTRRTPHQPWLLAPIDLQAVKAAGVTFATSLLERVVEEQAKGDPAKADAIRDTLASRIGADLSQIVPGSAQAEALRKVLVEQGLWSQYLEVGIGPDAEVFTKAQPLSAVGHGADIGIHPKSSWNNPEPEVVLAVSSNGSIKGAMLGNDVNLRDFEGRSALLLSKAKDNNASTALGPLLRLFDESFGLDDVRAAEVDLRVEGEDGFILSGRSSMRQISRDPQDLVQQTLNENHQYPDGLVLFLGTLFAPKQDRDQPGNGFTHKPGDVVSISNPQLGTLCNRVTTSDLAPQWDFGLRALIDNLGRRGLLEVAATARPL	6120 ± 210	19.64 ± 0.17	3210 ± 190				Km [5]: 350 ± 10 µM; kcat [5]: 75.9 ± 0.6 s⁻¹; kcat/Km [5]: 219900 ± 200 M⁻¹ s⁻¹
HsD-KdpD (Herbaspirillum seropedicae SmR1) (protein, C-terminal His6 tag (kept), pET vector, E. coli BL21(DE3), HisTrap purified) MAHTFSLQAHLPEDHAQATLIGRIWQPGVGPVLVRIDADGAYDLTLIAATSSELLELDNPAAAVRSATNMTRIATLQELLDNADAAGRDTSRPWLLAPIDLQAVKASGVTFVASMLERVIEEQARGDAGKAESVRKAITAVIGDNLSSVVPGSPEAARLKEVLLDQGVWSQYLEVGIGPDAEIFTKAQPMSSVGLGDEVGIHPKSAWNNPEPEIVLAINSRGKVVGATLGNDVNLRDFEGRSALLLGKAKDNNASCAVGPFIRLFDANFSIDDVRRAELTMRVDGTEGFTLKGSSSMSMISRDPLQLVEHAIGPNHQYPDGLVLFLGTMFAPTQDRFGPGQGFTHQVADIVTISTPKLGALVNTVNFSDQTAPWTFGLTALFKNLADRKLI	3180 ± 180	16.9 ± 0.21	5320 ± 230				Km [6]: 170 ± 10 µM; kcat [6]: 58.2 ± 0.4 s⁻¹; kcat/Km [6]: 347900 ± 200 M⁻¹ s⁻¹
CcD-KdpD1 (Caulobacter vibrioides CB15) (protein, C-terminal His6 tag (kept), codon-optimised synthetic gene, E. coli BL21(DE3); 58-residue N-terminal extension) MVCRRLLAWTARAREAEDFALVRQPTCRPHMLALPSADERAPPTVSALQTLEFWGDDAVGVSEFLPEDWKAATLLGRIDFGEGPTPVLVRGGRVEDVSKIAPTVADLMNAFQPGAVIPRGEDKGPLEALDIRPVWEDPDGAAPVKLLAPVDLQCLKAAGVTFAVSTLERVIEERARGDAGEALKIRTLLAERMGGDLKSVEPGSQGAQRLKDALIADGLWSQYLEVAIGPDAEIFTKGPTLSSMGWGDQVGVRYDSHWNNPEPEVVLLCDGSGLIRGAALGNDVNLRDFEGRSALLLSKAKDNNASCAIGPFFRLFDETFGLDDVRSAEVELKITGRDNFVLDGKSNMSLISRDPAVLAGQAYGKQHQYPDGFALFLGTMFAPIQDRDTPGQGFTHKVGDRVRVSTPKLGVLENEVTTCDKAKPWTFGISALIRNLAGRGLL	2810 ± 120	7.99 ± 0.08	2840 ± 210				Km [7]: 250 ± 10 µM; kcat [7]: 45.6 ± 0.3 s⁻¹; kcat/Km [7]: 185700 ± 200 M⁻¹ s⁻¹
PxD-KdpD (Paraburkholderia xenovorans LB400) (protein, C-terminal His6 tag (kept), codon-optimised synthetic gene, E. coli BL21(DE3), HisTrap purified) MSATSPSSFLPDDLGQALLVGRVWRKTDQHEGPSVVVVRGGEVFDITATVPTTADLFDREDAAPLARTAPGVSLGAVAQLIASNLPGAAAPALRLLAPCDVQAIKACGVTFAVSLIERVIEEQAAGDPAKAKEVRDTIASMIGTDLSKIEPGSDAAMKLKAELERRGAWSQYMEVGIGPDAEVFSKSQPMSAVGFGADVGLLAASTWNNPEPEIVLAVNSRGEIVGATLGNDVNLRDIEGRSALLLGKCKDNNGSCAIGPFVRLFDESFSLDSVRTASVALRVEGADDGFVLEGVSHMSEISRDPANLVAQTWGRHHQYPDGFMLFLGTMFSPIKDRDAPGAGFTHHLGDLVTISTPQLGALTNTVRLSTEIEPWTFGVRALYRNLAARGLLASA	5080 ± 170	18.73 ± 0.15	3690 ± 180				Km [8]: 280 ± 10 µM; kcat [8]: 63.6 ± 0.4 s⁻¹; kcat/Km [8]: 229800 ± 200 M⁻¹ s⁻¹
CnL-KdpD (Nhis) (Cupriavidus necator H16) (protein, N-terminal His6 tag (kept), pET vector, E. coli BL21(DE3), HisTrap purified; strain given inconsistently (H16 gDNA vs N-1)) MTRTPSPTVYRGVFPVAPTVFDAQGGLDLDGQRRCIDFMIDAGSHGICILANFSEQFVLSDDERNVLMKTVLEHVDGRVPVIVTTTHFSSRLCAERSRAAQDAGAAMVMVMPPYHGATIRVPERSIYEFFATVSDAIDIPIMIQDAPVSGTTLSAPFLARMAREIGNVSYFKIEVPQAAAKLRELIELGGDAIVGPWDGEEAITLMADLEAGATGAMTGAGFPDGIRQILDAWQAGDAELAAQRYQQWLPLINYENRQGWLATSKVLMQAGGVIASDAVRHPLQPMHPATREGLLKIARRLDPLVLRWAR				4080 ± 210	12 ± 0.16	2950 ± 230	Km [9]: 170 ± 0 µM; kcat [9]: 23.4 ± 0.1 s⁻¹; kcat/Km [9]: 137200 ± 200 M⁻¹ s⁻¹
CnL-KdpD (Chis) (Cupriavidus necator H16) (protein, C-terminal His6 tag (kept), pET vector, E. coli BL21(DE3), HisTrap purified; strain given inconsistently (H16 gDNA vs N-1)) MTRTPSPTVYRGVFPVAPTVFDAQGGLDLDGQRRCIDFMIDAGSHGICILANFSEQFVLSDDERNVLMKTVLEHVDGRVPVIVTTTHFSSRLCAERSRAAQDAGAAMVMVMPPYHGATIRVPERSIYEFFATVSDAIDIPIMIQDAPVSGTTLSAPFLARMAREIGNVSYFKIEVPQAAAKLRELIELGGDAIVGPWDGEEAITLMADLEAGATGAMTGAGFPDGIRQILDAWQAGDAELAAQRYQQWLPLINYENRQGWLATSKVLMQAGGVIASDAVRHPLQPMHPATREGLLKIARRLDPLVLRWAR				6400 ± 170	11.01 ± 0.08	1720 ± 160	Km [9]: 160 ± 10 µM; kcat [9]: 22.5 ± 0.2 s⁻¹; kcat/Km [9]: 137500 ± 200 M⁻¹ s⁻¹
HsL-KdpD (Herbaspirillum seropedicae SmR1) (protein, N-terminal His6 tag (kept), pET vector, E. coli BL21(DE3), HisTrap purified) MSTPLYRGVFPVAPTIFDANGKLDLEGQKRAIDFMIDAGSNGLCILANFSEQFVLSDEERVQVQNTVLEHVAGRVPVIVTTTHYGSQICAERSRAAQDAGAAMVMVMPPYHGATFRVPEKQIYEFYKHVSDAIDIPIMIQDAPVAGTPLSAPFLARMAKEIEQVSYFKIETAGAASKLRDLIELGGDAVVGPWDGEEAITLIPDLDAGATGAMTGGGYPDGIRKIVDAYFAGDIEKAAELYMQWLPLINYENRQCGLSACKALMLEGGVIKSDMLRHPQPPLHPKVREGLLRVARRLDPLVLSWGR				4410 ± 90	11.38 ± 0.06	2580 ± 140	Km [10]: 180 ± 0 µM; kcat [10]: 29.6 ± 0.2 s⁻¹; kcat/Km [10]: 163900 ± 200 M⁻¹ s⁻¹
CcD-KdpD2 (Caulobacter vibrioides NA1000) (protein, C-terminal His6 tag (kept), pET vector, E. coli BL21(DE3), HisTrap purified) MGVSEFLPEDWKAATLLGRIDFGEGPTPVLVRGGRVEDVSKIAPTVADLMNAFQPGAVIPRGEDKGPLEALDIRPVWEDPDGAAPVKLLAPVDLQCLKAAGVTFAVSTLERVIEERARGDAGEALKIRTLLAERMGGDLKSVEPGSQGAQRLKDALIADGLWSQYLEVAIGPDAEIFTKGPTLSSMGWGDQVGVRYDSHWNNPEPEVVLLCDGSGLIRGAALGNDVNLRDFEGRSALLLSKAKDNNASCAIGPFFRLFDETFGLDDVRSAEVELKITGRDNFVLDGKSNMSLISRDPAVLAGQAYGKQHQYPDGFALFLGTMFAPIQDRDTPGQGFTHKVGDRVRVSTPKLGVLENEVTTCDKAKPWTFGISALIRNLAGRGLL	3960 ± 130	9.67 ± 0.08	2440 ± 180				Km [7]: 290 ± 10 µM; kcat [7]: 55.8 ± 0.4 s⁻¹; kcat/Km [7]: 190600 ± 200 M⁻¹ s⁻¹
